# Experiment: soluble on expression in E. coli; label from the status in PepcDB or PDB records
row,Sequence,soluble on expression in E. coli
1,AEFKHVFVCVQDRPPGHPQGSCAQRGSREVFQAFMEKIQTDPQLFMTTVITPTGSMNACMMGPVVVVYPDGVWYGQVKPEDVDEIVEKHLKGGEPVERLVISKGKPPGMF,soluble
2,MTVDNFRLQVLANHCTAAAEAMGYTLMRTAYSTFVKETEDFSAQLMTPAGKTFASPKTFGATWYTGLDYGRVIAMFDDYREGDIYLTNDPYSGFVATHTPDMHVWKPVFRDGRLVCFVGSHIHNTDMGGAVPASLSRTLTEVHQEGLRIPPMLLARDGVIDEKVLRIMEVNVRMPEQNRGDLNAQIAALNVGERKVHEIIDRFGVDEFMQGAEAILDYAEQQTRALIREIPDGEYRFAEYADEDTVGGYPCRIQITLRVRGDELELDFTGSDPQVASSLNVPTGGDGHHSVITVGLIYVMHTLAPRNVLNAGSVRPCRAVLPEGTVVNPQAPAAVGMRSLMAAVIQACTFGVFSRAMPDRLPACPAGGSTLLNVKTATREGRQVLSSIGPCGGGAGGGPEHDGVEGCGANNAFLKNTPVEINEAEVPIEIIRYGLVPDTGGAGRQRGGNAATMEFRLLAPNGVVTARNRNRSELAAWGVMGGKAGANSRFIRNPDSDAPEELRNSDLVNCAPGDVIRLQGPAGGGYGHPYERPIEQVVED,not soluble
3,MGSDKIHHHHHHMFIVSKQTTTEYGTGCFAAPSSSCQSEYNPKVENDAVAHNSISGLRGSLRRNSSNLSSQLTALQETCLADAAQIEINCSTSNAKQAFFVKIEVPTGEQGVLHFSPSSGDISQVFTPIQNGCGHGVWKFVVCTMENGSEIAHSQVSRNLDGVGILFFNVYEDLEIRLAQQEFLHISHCHTRRH,not soluble
4,MGSDKIHHHHHHMKKYLTLAASALLLAACSEKPGYEINGTVANTDLNGKYVYLYEYGVQDAAPMDSALVQNGTFTFKGTQSAPALRKLAFAEDVVEPKRAASGENAPFTSVFVLENGKLQAVLDEAASAVSGTPENDGLKALQAQMKTLRADLEKLSADMKSEDKEVVSAAEKKYDEIDQKVTDAVKTYILNNTTKQSAAKLLYDFRYSLDEAAQNEIIAKADSAFKAVPNIDKLMAHLDVLKTVAVGKKFVDFEMADPNGKTHKLSEFVGNGKNIVLIDFWASWCPPCRRDMPNLVAAYKKYKNKGFEIVGISLDSKADAWAKGVKDLNITWTQLSDLQGWKNSGAQLYGVNSIPHTVLVDKDGTIIAKNLHGEEIDAKLQEILK,not soluble
5,MEHHHHHHATNLRGVMAALLTPFDQQQALDKASLRRLVQFNIQQGIDGLYVGGSTGEAFVQSLSEREQVLEIVAEEAKGKIKLIAHVGCVSTAESQQLAASAKRYGFDAVSAVTPFYYPFSFEEHCDHYRAIIDSADGLPMVVYNIPALSGVKLTLDQINTLVTLPGVGALKQTSGDLYQMEQIRREHPDLVLYNGYDNIFASGLLAGADGGIGSTYNIMGWRYQGIVKALKEGDIQTAQKLQTECNKVIDLLIKTGVFRGLKTVLHYMDVVSVPLCRKPFGPVDEKYLPELKALAQQLMQER,soluble
6,MAILITGGAGYIGSHTCVELLNNNYKIIVVDNLSNSSIESLNRVKEITGKQFEFYKENVLNREKMNEIFLENNIEAVIHFAGFKAVGESTTTPLAYYYNNIISAIVLCDVMQKHNVKNFIFSSSATVYGIPKTLPITEEFPLSVTNPYGQTKLMIEQIMRDVAKADDEWSIALLRYFNPFGAHQSGRIGEDPNGIPNNLMPYVTQVAVGKLKELNIFGNDYPTKDGTGVRDYIHVVDLAKGHVKALEKVLKTKGIEAYNLGTGKGYSVLEMVKAFEKVSGKKIPYKVIGRRPGDVAICFADVSKAKRELGWEAEYGLEEMCVDSWRWQVNNKNGYQMI,not soluble
7,MSLNRKLLTADERQARDTERRSQLDVALMEGVQAILDSDSFKAVLAANAKFHSYSVNNAMLIWLQNPAAERVAGFHTWRKLGRSVKKGAKGIMIYAPRVATNVDAATGSEETHVYFGIEHVFDISQTEGDDIPTLDCPVLTEERGHDVYDRLVTYATRDGLTVSSDVAHELSEAMGYYSAVSKRIWVRPTAKAQMLKTLIHEIAHHLTEGKHTREAHETIAEGVAFQVCACLGIDSGERSFPYIAGWSASEGGTALIKQVLGHIQAITKQVMAIVEPADEANEGAEGHHHHHH,soluble
8,SQGENVDHAQPISTWSAEQELHLVVFTKPPIAGLTKQRLSREIGSTLATRISAALVENTLATAYDWLQGLDLQAGGTGAVHLYYTPVESEQAKAECVERWLDDSVRHRYPAFRIAPQKASKVQSTGDQKQDPLGSRLIQAFTEVTSLVDESRDAHVVVIGSDCPALDTAVLQQAFAALHAGHGAVIGPAQDGGYYLLGLAFAAAERTRWARVIYAAFGPHLVFSQNDVCARTVEALRNDGVRTICLPVTLNDVDTAQDLVHLPASMRPREWFSSANARLHKTSDLVETAPAPGSTTCDEEVDADKLDPSVQNVCSRQV,soluble
9,SPAPVQDPHLIKVTVKTPKDKEDFSVTDTCTIQQLKEEISQRFKAHPDQLVLIFAGKILKDPDSLAQCGVRDGLTVHLVIKRQHRAMGNECPA,soluble
10,GPGSMTTAASEGIVSREQLQMMLHVILHSTDNNERRNVEKSVVQLLTTPSTLTLLMVMLRDVQGSSPGVRQLAAVLLRKKVLSLWRTIPSESRGDFKGALLEQLGCEPVKAVRLALAHLVTRVAKADAMDEDGGWPELNYAIRAAVIDPRAEMRELAMVLAYSVAEVMSEADTHCLPVVEAVLQGMLDSEDAVQRSAVKAVGTLFVFMRGQTKVWEQLLQQLVPQCLALLTKCGTEETKTNLCVDVLDLLEQLVEDLSVKKHGALLRSVALEVLSVMTNGAIQPRVRQSCAEVLASLVNQKPKFVSTTVLEPLVSACVQVMSEDNAISLPEVAHTEGMENCDDSQSDENDAADMLHVDPPCLFAGRLLSTIATKVAAKSFTGALLPLISPVAQSPQAVGPTGAKSFDPRSCLFGRG,not soluble
11,MSRDPTYTINEHDLSFADGRFYVTFKADKSSETVRLNSSCLGNTIIKKLQVEDDNTMHDFVKPKVTTQQAFGLAQQVKELDLQLKDPKSDLWGKIKFNNKAMLVEYANKEMSSAIAQSAEQILLQVKSIDDERYSKFEQTLNGIKQTVKSESVESARTQLASMFDSRISGLDGKYSRLSQTIDSLSSRLDDGVGNYSTLSQKVSGIDLRVSNAANDVSRLSQTAQGLQSQITNANQNYSSLSQTVQGLQTTVRDNQSNATSRINQLSDLISTKVSKGDVETTIAQSYDKIAFAIRDKLPASKMSGSEIISAINLDRSGVKITGKNITLDGNSYISNAVIKDAHIANMDAGKINTGYLNANRIATEAITGEKIKMDYAFFNKLTANEGYFRTLFAKDIFATSVQSVTLSASKITGGVLAATNGASQWDLNNANMTFNRDATINFNSKNNALVRKDGTHTAFVHFSNATPKGYRGSALYASIGITSSGDGIDSASSGRFAGLRSFRYATGYNHTAAVDQTELYGDNVLIADDFNINRGFKFRPDKMEKVLDMNDLYAAVVALGRCWGHLANVGWNT,not soluble
12,MAHHHHHHMSQEEILQQTTGPSVPGKGVIVDDGTMEDIIDKLRILRYEKDFCPRVKPPFKPLSKYYFSGPSSIDNPNAQFHYFTSLCSWLMGLAGHNFEPPGQFDDPNATSTNILGELRAMNISAPNLAPNRIRQGNGEAVLTILSVLSDHALLKKGFTVRSVDYTNVEKYDELDGVTDADDDNGIGEEVEDNVMIESDDEEELYVRATGERLVKEDAGVPLESEINAEEWNLEVERVGPLLQVRSDALQDWRSRIESAGVLLRAVEKMYPEVKADASTCGG,not soluble
13,KGEITYLNQAWASITGFSISECMGTMYNDYFIKEKHVADHINTQIQNKASSGMFTAKYVTKNGTIFWGEVHYKLYYDRDDQFTGSLGTMSD,not soluble
14,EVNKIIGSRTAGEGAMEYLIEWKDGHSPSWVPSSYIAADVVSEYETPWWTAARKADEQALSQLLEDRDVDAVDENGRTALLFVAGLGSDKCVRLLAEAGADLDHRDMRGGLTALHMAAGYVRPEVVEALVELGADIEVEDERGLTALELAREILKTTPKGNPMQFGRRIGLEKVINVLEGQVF,soluble
15,MKVEEILEKALELVIPDEEEVRKGREAEEELRRRLDELGVEYVFVGSYARNTWLKGSLEIDVFLLFPEEFSKEELRERGLEIGKAVLDSYEIRYAEHPYVHGVVKGVEVDVVPCYKLKEPKNIKSAVDRTPFHHKWLEGRIKGKENEVRLLKGFLKANGIYGAEYKVRGFSGYLCELLIVFYGSFLETVKNARRWTRRTVIDVAKGEVRKGEEFFVVDPVDEKRNVAANLSLDNLARFVHLCREFMEAPSLGFFKPKHPLEIEPERLRKIVEERGTAVFAVKFRKPDIVDDNLYPQLERASRKIFEFLERENFMPLRSAFKASEEFCYLLFECQIKEISRVFRRMGPQFEDERNVKKFLSRNRAFRPFIENGRWWAFEMRKFTTPEEGVRSYASTHWHTLGKNVGESIREYFEIISGEKLFKEPVTAELCEMMGVKD,soluble
16,MSLSLFQAILTSMEPREGGEKVFPSDLMIARKTKTGIIYPVFLSDDNIDYARAVISVFTLNTGKKKEVIENNLKEIELKFQNAKIIRALSLIMMRKSIFVPPVNIDAQALREYIFSMARIPPINSNEREMILKSAAESFNIDYIDIENAIYADKDSESILERPYNTDEGKLIREYNLEQLETVLLKCTELNISNASDWHFVITMIRRLGLLYEIKNDGDKIISVNITGPMALFENTERYGSKFSMLIRSIYKMNEWSLTASIKVKDFSGDKNIYTLKLSDSAKFFLPPGTIKPEHLPEHVSRGYPIIINNKFYFPDYIIDLDERIYVSINSDEKPDNLNWINVYILSDRDKKKPGSIAFYNDMDWDELFNLISKKRNLSSEIDNYSIDEIKKKLDQIYPDSQGMIDYLESQGLIPLRVLPELGYKIKWKNLDIIIEKAEGHHHHHH,not soluble
17,MGSDKIHHHHHHMIILDNHFHVDPINGLFLEAVKQFHRAGGTHLVVVYKSAHDYGFGGMKGEDFMRAMDFHVELVEIINKETPVKAYAVVGVHPAEFDYLARARGIEYAKREVMKALEHAQRLCLDGKAIGIGEVGRPHYPVPEEIWEASIEIMKYAMALAKEADCAVQLHTESFDEEKFRELGRYVREVGIKPYRVVKHFSPPLVKVAEEVGIFPSIIASRKNIEEAIKQGTRFLMETDYIDDKRRPGAVLGPKTVPRRTKELLQKGILTEDDVYRIHVENPEKVYGIEL,not soluble
18,MSLPAKTLVQAAANSGLRAVSVRHSSQAPKVALLGAAGGIGQPLGLLLKQDPLVAHLALYDVVNTPGVAADLSHIDSNAKVTAHTGPKELYAAVENADVIVIPAGVPRKPGMTRDDLFNTNAGIVRDLAAVIAKASPKALIAIITNPVNSTVPIASEVLKKAGVYDPKRVFGVTTLDVVRSQAFVSELKGHDASKTVVPVVGGHAGITIIPLLSQVKPSTKFSEEEISKLTPRIQDAGTEVVNAKAGAGSATLSMALAGARFANALVRGIKGEKNVQCAYVASDAVKGVEYFSTPVELGPNGVEKILGVGKVSAYEQKLIDASVPELNKNIAKGVAFVKGN,not soluble
19,MSLVRGVLKRSKFRKMIRRAKVGDAKYIYELLTEFAKRGILLPRSLNSIYENIRDFWVYEKDGKVVGCVALHVMWEDLAEIRSLAVKEEYQKEGIGRELVIRALEDAWELGIKKVFSLTYVKEFFKKLGFKEIDKSVLPHKVWGECINCVKFPNCDEEAVLVELSEEYIKKLKEGEKISSLLPEGHHHHHH,soluble
20,MKIAAIYTQSVGPLPDGEIRFENDWSGEIESNVLITGPNGCGKSTLLRAISLLWRAFGHWLGTGTRLNIKDESYTWFYRWDASCAMILDSFSPKSEDQIGLFLGSEAFLVQLKEKYPQVYWLGETVSRTKGTTPETTVFTSSEHFFLPYKNWWSHWSSQYQRLVLKGPSVDMPNLVYLDAEARRWVRPQKDIGSLSPDDSTQAWLATYEVNDNWKGQLESSLFNMKATMPGEYPEMIATLNQFFSGKRIEAEIHPGQRQRVLLDSGNDHSLDALSSGEHQVLIMLFTVQRWLQPGGVVLIDEPDLHLHPSLISPLLASIENIVARKNGQLVMTSHATDIWQRYDNMGLRIDLTDGKDAENGQR,not soluble
